{"source": "patent US12534541B2", "about": "“Anti-PTK7 antibody and uses thereof” (MABCARE THERAPEUTICS, priority 2023, dated 2026)", "molecules": {"B1": {"name": "h6M24-vc0101: control drug: h6M24 (cofetuzumab) linked to Aur0101 via mc-VC-PAB linker, DAR about 4 (conjugate, chains of the INN, looked up)", "VH": "QVQLVQSGPEVKKPGASVKVSCKASGYTFTDYAVHWVRQAPGKRLEWIGVISTYNDYTYNNQDFKGRVTMTRDTSASTAYMELSRLRSEDTAVYYCARGNSYFYALDYWGQGTSVTVSS", "VL": "EIVLTQSPATLSLSPGERATLSCRASESVDSYGKSFMHWYQQKPGQAPRLLIYRASNLESGIPARFSGSGSGTDFTLTISSLEPEDFAVYYCQQSNEDPWTFGGGTKLEIK", "modifications": "Aur0101 via mc-VC-PAB linker, DAR 4"}}, "key": {"OVCAR-3 cells": {"tested_on": "OVCAR-3 cells", "assay": "In vivo anti-tumor activity against human ovarian cancer cell line OVCAR-3", "conditions": "OVCAR-3 in NCG mice, i.v. 3 mg/kg or 5 mg/kg, 1 dose, vs negative control", "experimental": "6-week-old NCG mice, female, weighing 18-21 g, were purchased from Beijing Vital River Laboratory Animal Technology Co., Ltd. The mice were subcutaneously inoculated with OVCAR-3 cells (Human Ovarian Cancer Cells, ATCC, Catalog No. HTB-161). When the average tumor volume reached 150 mm^3, the antibody-drug conjugates Ab13-T1000-exatecan and h6M24-T1000-exatecan as prepared in Example 5 and the antibody-drug conjugate Ab13-vc0101 and h6M24-vc0101 as prepared in Example 8 were administered intravenously at a dose of 3 mg/kg or 5 mg/kg, respectively, and a negative control Vehicle group was set and administered intravenously with PBS at an equal dose, once a week for a total of 1 dose. After dosing, the tumor volume was measured twice a week using a vernier caliper and calculated according to the following formula: TV=(length*width^2)/2."}, "[1]": {"tested_on": "esophageal squamous cell carcinoma PDX LD1-2015-361318", "assay": "In vivo anti-tumor activity against human esophageal squamous cell carcinoma PDX LD1-2015-361318", "conditions": "NU/NU mice, i.v. 5 mg/kg, once a week, 2 doses, vs negative control", "experimental": "6-week-old NU/NU mice, female, weighing 18-21 g, were purchased from Beijing Vital River Laboratory Animal Technology Co., Ltd. The mice were subcutaneously inoculated with esophageal squamous cell carcinoma tumor mass (specimen no. 361318, obtained from Xi'an LIDE Biotech Co. Ltd.). When the average tumor volume reached 150 mm^3, the antibody-drug conjugate Ab13-T1000-exatecan as prepared in Example 5 was administered intravenously at a dose of 10 mg/kg, the antibody-drug conjugate h6M24-vc0101 as prepared in Example 8 was administered intravenously at a dose of 5 mg/kg, and a negative control Vehicle group was set and administered intravenously with PBS at an equal dose, once a week for a total of 2 doses. After dosing, the tumor volume was measured twice a week using a vernier caliper and calculated according to the following formula: TV=(length*width^2)/2."}, "[2]": {"tested_on": "refractory ovarian cancer expressing PTK7, triple-negative breast cancer, and NSCLC", "conditions": "cited from earlier work"}}, "note": "Where two headings read alike, the source gives them in different places."}
{"molecule": "B1", "values": [{"measurement": "tumor growth inhibition (tumor volume over time)", "setting": "OVCAR-3 cells", "value": "less effective in inhibiting tumor growth"}, {"measurement": "tumor growth inhibition (tumor volume over time)", "setting": "[1]", "value": "partially inhibit tumor growth"}, {"measurement": "dose-limiting toxicity", "setting": "[2]; highest dose assessed every 3 weeks", "value": "Two patients experienced a dose-limiting toxicity (grade 3 headache and fatigue)"}, {"measurement": "objective response rate (ORR)", "setting": "[2]; patients with NSCLC (6/31 patients)", "value": 19, "unit": "%"}, {"measurement": "objective response rate (ORR)", "setting": "[2]; patients with refractory ovarian cancer expressing PTK7 (17/63 patients)", "value": 27, "unit": "%"}, {"measurement": "objective response rate (ORR)", "setting": "[2]; patients with triple-negative breast cancer (6/29 patients)", "value": 21, "unit": "%"}]}
